One experiment deals with monkey nectin4 protein (monkey). In words: ELISA, coated monkey nectin4, IgG titrated, anti-hFc HRP. A general note: An ELISA detects its analyte on a solid surface through an enzyme-linked reagent.
Another experiment deals with T1, mouse nectin4 protein (mouse, UniProt Q8R007 31-347, limits assumed).
T1 sequence (looked up): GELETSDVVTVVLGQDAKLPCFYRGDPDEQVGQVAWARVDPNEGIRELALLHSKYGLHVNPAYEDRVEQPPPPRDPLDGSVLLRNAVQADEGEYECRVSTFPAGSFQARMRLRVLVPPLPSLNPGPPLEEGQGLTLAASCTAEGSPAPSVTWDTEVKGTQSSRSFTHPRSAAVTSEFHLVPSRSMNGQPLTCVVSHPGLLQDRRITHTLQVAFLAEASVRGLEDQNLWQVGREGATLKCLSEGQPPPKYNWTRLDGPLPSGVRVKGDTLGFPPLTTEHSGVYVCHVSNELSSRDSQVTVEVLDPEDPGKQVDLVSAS
In words: ELISA, coated mouse nectin4, IgG titrated, anti-hFc HRP.

For experiment [1], the target named is T2, full-length human Nectin4 with C-terminal flag and Myc tags on CHO cells (human, UniProt Q96NY8 32-510).
T2 construct: whole, on cells; also called Nectin4/CHO; CHO/Nectin4; not shown: C-terminal flag and Myc tags of pCMV6-Entry vector
T2 sequence (looked up): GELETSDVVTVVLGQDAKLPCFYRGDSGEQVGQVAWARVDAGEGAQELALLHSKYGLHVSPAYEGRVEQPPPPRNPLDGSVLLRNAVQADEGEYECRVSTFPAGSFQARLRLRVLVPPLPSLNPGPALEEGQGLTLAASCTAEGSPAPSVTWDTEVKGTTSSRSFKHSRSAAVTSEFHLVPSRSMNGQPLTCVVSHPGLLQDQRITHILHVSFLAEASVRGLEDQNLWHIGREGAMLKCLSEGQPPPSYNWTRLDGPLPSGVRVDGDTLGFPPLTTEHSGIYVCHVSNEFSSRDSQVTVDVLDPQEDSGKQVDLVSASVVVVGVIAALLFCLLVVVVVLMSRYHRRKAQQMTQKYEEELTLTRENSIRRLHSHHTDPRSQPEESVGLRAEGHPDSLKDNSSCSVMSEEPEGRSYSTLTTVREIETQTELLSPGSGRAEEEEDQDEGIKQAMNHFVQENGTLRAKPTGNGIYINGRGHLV
In words: flow cytometry, IgG on Nectin4/CHO cells, anti-hFc Alexa fluor 647. How it is done: 200 nM of purified anti-Nectin4 IgG antibodies were diluted in full medium and incubated with Nectin4/CHO and CHO cells in 96 wells plate on ice for 1 hour. Cells were spun down at 1200 rpm for 5 minutes at 4° C. to remove primary antibodies. Cells were then washed once with 200 uL of full medium per well. Samples were detected with anti-hFc Alexa fluor 647 by adding 100 uL of diluted secondary antibody and incubated at 4° C. for 30 minutes in the dark. Samples were spun down at 1200 rpm for 5 minutes at 4° C. and washed twice with 200 uL of 1×PBS per well. Reconstituted samples in 200 uL of 1×PBS and read on Attune NxT cytometer. Analysis was done by Attune NxT software plotting the overlay histogram of […] proteins binding onto both negative and target cell lines.
On the technique in general: A flow cytometer gives signals particle by particle.

Experiment [2] concerns the target T2, full-length human Nectin4 with …. The experiment can be described thus: cell-based or functional assay.
Experiment [3] deals with T3, human Nectin4-HIS tagged recombinant protein (human, UniProt Q96NY8 32-349).
T3 construct: also called hNectin4-HIS; Nectin4 HIS tagged protein; not shown: HIS tag
T3 sequence (looked up): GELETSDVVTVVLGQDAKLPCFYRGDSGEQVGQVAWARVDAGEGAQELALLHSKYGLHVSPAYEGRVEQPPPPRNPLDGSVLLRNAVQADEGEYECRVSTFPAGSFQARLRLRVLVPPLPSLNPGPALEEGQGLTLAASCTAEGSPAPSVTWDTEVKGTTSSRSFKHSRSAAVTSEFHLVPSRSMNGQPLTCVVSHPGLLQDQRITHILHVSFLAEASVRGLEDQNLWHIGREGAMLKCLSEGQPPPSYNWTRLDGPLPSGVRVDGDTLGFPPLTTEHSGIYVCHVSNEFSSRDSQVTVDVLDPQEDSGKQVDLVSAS
The experiment can be described thus: SPR Biacore T200, IgG captured on Protein A chip, hNectin4-HIS injected. The procedure:
Kinetic analysis of anti-Nectin4 IgG has been assessed by the SPR technology with Biacore T200. The assay was run with Biacore T200 control software version 2.0. For each cycle, 1 ug/mL of anti-hNectin4-IgG was captured for 60 seconds at flow rate of 10 ul/min on flow cell 2 in 1×HBSP buffer on Protein A sensor chip. 2-fold serial hNectin4-HIS tagged protein was injected onto both reference flow cell 1 and anti-Nectin4 IgG captured flow cell 2 for 150 seconds at flow rate of 30 ul/mins followed by wash for 300 seconds. The flow cells were then regenerated with Glycine pH2 for 60 seconds at flow rate of 30 ul/mins. 8 concentration points from 100-0 nM was assayed per anti-Nectin4 IgG in a 96 well plate. The kinetics of Anti-Nectin4 IgG binding to Nectin4 protein was analyzed with Biacore T200 evaluation software version 3.0. The specific binding response unit was derived from subtraction of binding to reference flow cell 1 from antibody captured flow cell 2.

Experiment [4] has as its target T3, human Nectin4-HIS tagged recombinant …. In words: ELISA, coated human Nectin4-HIS, IgG titrated, anti-hFc HRP. How it is done: An ELISA assay was developed to determine the EC₅₀ of exemplary anti-Nectin4 IgG antibodies. Briefly, 384 well plate was immobilized with human Nectin4-HIS tagged recombinant protein at final concentration of 2 ug/mL in 1×PBS in total volume of 25 uL per well. The plate was incubated overnight at 4° C. followed by blocking with 80 uL of superblock per well for 1 hour. Titration of purified anti-Nectin4 IgG starting at 200 nM 2-fold serial dilution, 25 uL was added to human Nectin4 immobilized wells and incubated for 1 hour with shaking. The Nectin4 binding was detected by adding 25 uL of anti-hFc HRP diluted at 1:5000 in 1×PBST. In between each step, the plate was washed 3 times with 1×PBST in a plate washer. The plate was then developed with 20 ul of TMB substrate for 5 mins and stopped by adding 20 ul of 2N sulfuric acid. The plate was read at OD450 nm Biotek plate reader and then plotted in Prism 8.1 software.

For experiment [5], the target named is T4, human CD3E HIS tagged protein (human, UniProt P07766 23-126).
T4 construct: not shown: HIS tag
T4 sequence (P07766 23-126 limits assumed): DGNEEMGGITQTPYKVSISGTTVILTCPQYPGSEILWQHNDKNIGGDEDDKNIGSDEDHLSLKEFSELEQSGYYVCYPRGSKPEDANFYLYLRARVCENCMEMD
In words: ELISA, coated human CD3E HIS tagged protein, bispecific titrated, anti-Human HRP. The procedure:
(§1) An ELISA assay was developed to determine the EC₅₀ of anti-Nectin4/CD3 bispecific antibodies. Briefly, 384 well plate was immobilized with human CD3E or Nectin4 HIS tagged protein at final concentration of 2 ug/mL in 1×PBS in total volume of 25 uL per well. The plate was incubated overnight at 4° C. followed by blocking with 80 uL of superblock per well for 1 hour. Purified anti-Nectin4/CD3 was 3-fold serial titrated from 100 nM. 25 uL was added to human Nectin4/CD3 immobilized wells and incubated for 1 hour with shaking. The CD3E or Nectin4 binding was detected by adding 25 uL of anti-Human HRP diluted at 1:10000 in 1×PBST. In between each step, the plate was washed 3 times with […] in a plate washer. The plate was then developed with 20 ul of TMB substrate for 5 mins and stopped by adding 20 ul of 2N sulfuric acid. The plate was read at OD450 nm Biotek plate reader and then plotted in Prism 8.1 software to calculate EC50.

The target of experiment [6] is T5, CD3 on Jurkat cells (UniProt P07766 23-207, limits assumed).
T5 construct: whole, on cells; the whole CD3/TCR complex stands on the cells; also called Jurkat CD3
T5 sequence (P07766 23-207 limits assumed): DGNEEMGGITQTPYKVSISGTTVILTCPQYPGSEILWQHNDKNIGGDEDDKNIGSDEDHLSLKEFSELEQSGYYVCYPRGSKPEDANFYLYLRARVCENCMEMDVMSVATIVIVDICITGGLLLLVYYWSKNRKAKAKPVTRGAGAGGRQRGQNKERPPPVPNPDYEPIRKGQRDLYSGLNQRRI
The experiment can be described thus: flow cytometry on Jurkat cells. The procedure:
Jurkat cells were plated at 100,000 cells/well in a 96-well plate with 50 μL of full media. Anti-Nectin4/CD3 antibodies were 3-fold serial titrated from 20 nM. 50 μL was added to the cells and incubated for 1 hours at room temperature with shaking. Samples were washed one time with flow buffer. […] Samples were washed once with flow buffer. Samples were stained with 100 uL Zombie Fixable Viability Dyes at 1:800 dilution per well and incubated in dark at room temperature for 30 mins. Samples were spun down at 1300 rpm for 5 minutes and washed once with 200 uL flow buffer. Reconstituted samples in 200 uL of flow buffer and read on Attune NxT cytometer. EC50 values for CD3 binding were calculated using Prism 8.1 software.

In experiment [7] the target is T3, human Nectin4-HIS tagged recombinant …. The experiment can be described thus: ELISA, coated Nectin4 HIS tagged protein, bispecific titrated, anti-Human HRP. How it is done: as §1
In experiment [8] the target is T4, human CD3E HIS tagged protein. The experiment can be described thus: SPR Biacore T200, bispecific captured on Protein A chip, CD3E-HIS injected. How it is done:
(§2) The assay was run with Biacore T200 control software version 2.0. For each cycle, 1 ug/mL of anti-hNectin4/CD3 antibody was captured for 60 seconds at flow rate of 10 ul/min on flow cell 2 in 1×HBSP buffer on Protein A sensor chip. 2-fold serial diluted CD3E-HIS or hNectin4-HIS tagged protein was injected onto both reference flow cell 1 and anti-Nectin4/CD3 bispecific captured flow cell 2 for 150 seconds at flow rate of 30 ul/mins followed by wash for 300 seconds. The flow cells were then regenerated with Glycine pH2 for 60 seconds at flow rate of 30 ul/mins. 8 concentration points from 100 nM-0 nM (CD3E-HIS) or 300 nM-0 nM (Nectin4-HIS) was assayed per anti-Nectin4 IgG in a 96 well plate. The kinetics of Anti-Nectin4/CD3 bispecific binding to CD3E and Nectin4 proteins was analyzed with Biacore T200 evaluation software version 3.0. The specific binding response unit was derived from subtraction of binding to reference flow cell 1 from antibody captured flow cell 2. Table 10 below listed the kinetics results. ND means not determined. NA means data not available.
For orientation: SPR reads the build-up and loss of mass on a sensor chip optically.

For experiment [9], the target named is T3, human Nectin4-HIS tagged recombinant …. The experiment can be described thus: SPR Biacore T200, bispecific captured on Protein A chip, hNectin4-HIS injected. The procedure: as §2
For experiment [10], the target named is T2, full-length human Nectin4 with …. In words: flow cytometry on CHO/Nectin4 cells. The procedure: Nectin4/CHO Nectin4 cells were plated at 100,000 cells/well in a 96-well plate in 50 μL of full media. Cells were rested 1 hour at 37° C. Anti-Nectin4/CD3 was 3-fold serial titrated from 50 nM. 50 μL was added to the cells and incubated for 1 hours with shaking. Samples were washed one time with flow buffer. […] Samples were washed once with flow buffer. Samples were stained with 100 uL Zombie Fixable Viability Dyes (1:800 dilution) per well and incubated in dark at room temperature for 30 mins. Samples were spun down at 1200 rpm for 5 minutes and washed once with 200 uL flow buffer. Reconstituted samples in 200 uL of flow buffer and read on Attune NxT cytometer. EC₅₀ values for Nectin4 Binding were determined using Prism software.

The target of experiment [11] is T5, CD3 on Jurkat cells. The experiment can be described thus: cell-based or functional assay.

B1: 2020EP034-E01 IgG (EP296/EP286) (antibody, V domains shown)
VH: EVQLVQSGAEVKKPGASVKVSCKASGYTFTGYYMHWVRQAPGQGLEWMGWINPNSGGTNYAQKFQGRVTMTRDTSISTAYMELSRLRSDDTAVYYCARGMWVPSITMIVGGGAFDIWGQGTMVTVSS
VL: DVVMTQSPLSLPVTPGEPASMSCRSSESLLHRNGFNYLDWYVQRPGQSPKLLIYMGSYRASGVPDRFSGRGSGTDFALKISRVEAEDVGVYYCMQALQSPPLYTFGPGTKLEIKR
notes: Human IgG1
With B1, the EC50 in the experiment with monkey nectin4 protein came out at 0.043 nM; with mouse nectin4 protein, 0.037 nM; in experiment [1], 0.017 nM; in experiment [4], 0.035 nM. The “ADCC Bioreporter assay EC50” value in [2] worked out at 1.43 nM. Further, the Kd in experiment [3] is 11 nM.

B2: EP369/EP370/EP289 anti-Nectin4/CD3 bispecific antibody (bispecific antibody)
chain: not shown
heavy: EVQLVQSGAEVKKPGASVKVSCKASGYTFTGYYMHWVRQAPGQGLEWMGRINPNSGGTNYAQKFQGRVTMTRDTSISTAYMELSGLRSDDTAVYFCARVTYNIGWYIDYWGQGTLVTVSSASTKGPSVFPLAPSSKSTSGGTAALGCLVKDYFPEPVTVSWNSGALTSGVHTFPAVLQSSGLYSLSSVVTVPSSSLGTQTYICNVNHKPSNTKVDKKVEPKSCDKTHTCPPCPAPEAAGGPSVFLFPPKPKDTLMISRTPEVTCVVVDVSHEDPEVKFNWYVDGVEVHNAKTKPREEQYNSTYRVVSVLTVLHQDWLNGKEYKCKVSNKALGAPIEKTISKAKGQPREPQVCTLPPSRDELTKNQVSLSCAVKGFYPSDIAVEWESNGQPENNYKTTPPVLDSDGSFKLVSKLTVDKSRWQQGNVFSCSVMHEALHNHYTQKSLSLSPGK
light: QAVVTQPPSVSVAPGKTATITCGGNNIGSKGVHWYQQKPGQAPVLVIYYDTDRPSGIPERLSGSNSGNTATLTISRVEAGDEADYYCQVWDSSSDHPVFGGGTKLTVLGQPKANPTVTLFPPSSEELQANKATLVCLISDFYPGAVTVAWKADGSPVKAGVETTKPSKQSNNKYAASSYLSLTPEQWKSHRSYSCQVTHEGSTVEKTVAPTECS
notes: Monovalent format: anti-CD3 sp34 scFv-Fc knob (EP369), EP034-B09 heavy chain hole without ADCC (EP370), EP034-B09 light chain (EP289); also called EP369/370/289
As to B2, the EC50 is 0.005 nM in experiment [5], 0.169 nM in the experiment with CD3 on Jurkat cells [6], 0.019 nM in [7] and 0.146 nM in experiment [10]. The Kd in experiment [8] was found to be 2.23 nM; in experiment [9], 1.22 nM. In addition, the koff in experiment [8] was found to be 0.00059 s⁻¹; in experiment [9], 0.00012 s⁻¹. Further, the kon in [8] came to 265000 M⁻¹ s⁻¹; in [9], 98800 M⁻¹ s⁻¹. Also, the “NFAT reporter EC50” value in the experiment with CD3 on Jurkat cells [11] was 0.0038 nM.

By EC50 is commonly meant the concentration that produces a half-maximal response. For orientation: Kd means the concentration at which binding is half-saturated. By koff is commonly meant the first-order rate constant of dissociation. Broadly, the kon is the rate constant with which the complex forms.

These data come from patent publication US20240368275A1 (ELPIS BIOPHARMACEUTICALS, published 2024).
